Patent US20240058478A1, “FOLATE RECEPTOR-TARGETED CONJUGATES, COMPOSITIONS, AND DELIVERY TO THE CENTRAL NERVOUS SYSTEM” (PURDUE RESEARCH FOUNDATION, priority 2021, published 2024)

Columns and labels:
[1] = test system: folate receptor-positive cells; experiment: FRES uptake in spinal cord contusion injury (SCI): ex vivo NIR imaging of spinal cords; parameters: species or system Sprague Dawley rats; conditions: SCI rats
Procedure: Adult male Sprague Dawley rats were given a moderate grade spinal cord contusion injury (SCI). The rats were injected with OTL38 or simultaneously with OTL38 and Fol-Glu on day 7 after injury. On day 8, the spinal cords were removed and imaged for NIR signal.
NR signal is represented by green and red colors, with red showing areas of high intensity. Blue arrows point to the epicenter of the SCI. “R” indicates the rostral portion of the spinal cord.

[2] = Persistence of folate conjugate: NIR signal in blood and CSF over time; assay type: in vivo, Sprague Dawley rats; conditions: rats
Procedure: Adult male Sprague Dawley rats were injected with OTL38. Blood and cerebrospinal fluid (CSF) were then extracted at the same time at various timepoints and imaged. […] The data also indicate that the exposure of the CNS to the payload is extended over time.
FIG. 9 is a graph of mean fluorescent intensity vs. time for CSF and blood. n=1-4 rats/timepoint.

eye [3] = conditions: rat, in vivo
Procedure: An adult male Sprague Dawley rat was intravenously injected with OTL38 and imaged 24 hours later. […] Red and green colors indicate signal from the dye, with red showing the most intense regions.

eye [4] = conditions: mouse, in vivo
Procedure: Given the extensive time that OTL38 remained in the eyes, signal in the presence of the folate competitor folate-glucosamine (Fol-Glc) was tested. Healthy, wild-type mice were injected with 10 nmols OTL38. Some mice were subsequently injected with Fol-Glc. All mice were subsequently sacrificed and examined in comparison to noninjected mice.

[5] = test system: rats with controlled cortical impact (CCI) injuries; experiment: FRES uptake in controlled cortical impact (CCI) injury: NIR imaging of the cortex surface; assay type: in vivo, Sprague Dawley rats; conditions: intravenous injection ten days after CCI injury, imaged next day
Text: Adult male Sprague Dawley rats were given moderate grade controlled cortical impact (CCI) injuries. This injury represents concussion of the brain cortex, which is a more common injury in humans than laceration of the brain cortex. The impactor was circular and 6 mm in diameter. The rats were intravenously injected with OTL38 ten days after injury. The next day the rats were sacrificed, and the surfaces of the cortexes were imaged. […] The yellow arrow points to signal on the dorsal surface of the spinal cord.

[6] = test system: folate receptor-positive cells; experiment: FRES uptake in SCI: NIR imaging of transverse spinal cord sections, conjugate vs unconjugated dye; assay type: in vivo, Sprague Dawley rats; conditions: for NIR signal in the spinal cords: SCI rats, injected day 7 after injury, imaged day 8, conjugate vs unconjugated NIR dye
Procedure: Adult male Sprague Dawley rats were given a moderate grade SCI. The rats were injected with OTL38 or unconjugated NIR dye on day 7 after injury. On day 8, the spinal cords were removed and imaged for NIR signal.
FIGS. 11A-11B show transverse spinal cord sections of the rostral portions (FIG. 11A) and epicenters (FIG. 11B) of a rat with SCI and injected seven days after injury with OTL38. […] The results are shown in FIG. 11D, which is a bar graph of mean fluorescence intensity vs. rostral portion and epicenter showing OTL38 uptake (students t-test, **p<0.01).

[7] = test system: rats with cortex laceration of the left hemisphere; experiment: FRES uptake in cortex laceration: NIR imaging of the cortex; assay type: in vivo, Sprague Dawley rats; conditions: injected seven days after cortex laceration, brains removed next day
Procedure: Adult male Sprague Dawley rats were given brain injuries by cortex laceration of the left hemisphere using a small ophthalmic knife. Seven days after injury, the rats were injected with OTL38. The brains were removed the next day, and the cortexes were imaged.
FIGS. 13A-13B show a precise surface laceration injury in the cortex of the left hemisphere of the brain. FIG. 13A is a cartoon indicating the area of injury (blue circle) and the area imaged (blue rectangle). […] The right hemisphere cortex served as an internal control (uninjured, no signal).
Choroid plexus cells in the ventricles produce CSF and are the site of FRES release into the subarachnoid space, where the brain and spinal cord continue to be perfused. The 4th ventricle and lateral recess contain choroid plexus cells and are the site of outflow for newly produced CSF. The intense signal below the cerebellum (blue arrow) is a result of concentrated choroid plexus cells and FRES/new CSF production and entry for CNS perfusion. […] The opposite hemisphere represents an internal control with no areas of enhanced signal.

[8] = target: T1, folate receptors on cells of the choroid plexus (Mus musculus, UniProt P35846); experiment: Transport of folate conjugates across blood-cerebrospinal fluid barrier: NIR imaging of brain/choroid plexus; assay type: in vivo, B6 male mice
T1 construct: the uptake of OTL38 is mediated by folate receptors on cells of the choroid plexus; from tissue; host or cells: choroid plexus of live B6 male mice (in vivo, ex vivo NIR imaging of brain)
T1 sequence (P35846 25-232): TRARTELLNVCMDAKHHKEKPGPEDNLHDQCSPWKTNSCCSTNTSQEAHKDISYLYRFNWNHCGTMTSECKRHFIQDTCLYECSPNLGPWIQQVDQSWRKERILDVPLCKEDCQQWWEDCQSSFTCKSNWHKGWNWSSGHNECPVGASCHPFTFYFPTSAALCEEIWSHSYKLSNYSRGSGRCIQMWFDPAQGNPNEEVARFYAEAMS
Text: Corresponding ventral side of the spinal cords are shown to the left of each brain. […] Green fluorescence indicates OTL38 signal. […] In the middle column (OTL38+Fol-Glu, n=4) minimal uptake is observed. In the far-right corner, Control (non-injected, n=1), no signal is observed. FIG. 9 is a graph of mean fluorescent intensity vs. time for CSF and blood. n=1-4 rats/timepoint.
B6 male mice were given an intravenous tail injection of a folate-fluorescent near infrared (NIR) dye conjugate (i.e., OTL38) and imaged. […] Corresponding ventral side of the spinal cords are shown to the left of each brain. […] Green fluorescence indicates OTL38 signal. […] In the middle column (OTL38+Fol-Glu, n=4) minimal uptake is observed. In the far right corner, Control (non-injected, n=1), no signal is observed.

Compound	NIR signal in the spinal cords, injected simultaneously with Fol-Glu ([1]; OTL38+Fol-Glu on day 7 after injury, imaged day 8)	NIR signal in the spinal cords ([1]; injected day 7 after injury, spinal cords imaged day 8)	NIR signal in the blood relative to that of the CSF ([2]; four hours post-injection and all subsequent timepoints)	NIR signal in the blood relative to that of the CSF ([2]; two hours post-injection, blood exceeded CSF)	Uptake in the retina, eye slices (eye [3])	NIR signal at the eye, live imaging (eye [3]; iv)	OTL38 signal (mean fluorescence intensity) in eyes after administration of Fol-Glc (eye [4])	NIR signal at the CCI injury [5]	Mean fluorescence intensity, epicenter vs rostral region ([6]; SCI rat, transverse spinal cord sections, students t-test **p<0.01)	NIR signal in the spinal cords [6]	NIR signal around the choroid plexus [7]	NIR signal at the cortex injury ([7]; uninjured right hemisphere no signal)	NIR signal in the choroid plexus, co-injected with Fol-Glu ([8]; mice co-injected with OTL38 and folate-glucosamine conjugate (Fol-Glu), competitor for folate receptors)	NIR signal in the choroid plexus ([8]; mice, intravenous tail injection, 24 hours after injection)
OTL38	lack of signal	Strong signal	dropped and remained lower than that of the CSF	nearly two-fold	strong OTL38 uptake in the area of the retina	intense red signal at the eye	reduced	positive targeting of the 6 mm circular injury	significant increase in signal in the epicenter as compared to the rostral region	Signal was observed	Increased signal around the choroid plexus	enhanced signal around the injury area	noticeable reduction in signal	Strong signal
CC1(C)C(/C=C/C2=C(Cl)C(=C/C=C3/N(CCCCS(=O)(=O)[O-])c4ccc(S(=O)(=O)[O-])cc4C3(C)C)/CCC2)=[N+](CCCCS(=O)(=O)[O-])c2ccc(S(=O)(=O)[O-])cc21.[Na+].[Na+].[Na+] [unconjugated NIR dye]	–	–	–	–	–	–	–	–	–	lack of signal	–	–	–	–
